The record followed here is paper PMC5297747.

Experiment [1] deals with bovine α-chymotrypsin (bovine). The experiment is described as follows: progress curve of protease inhibition; 40 °C; buffer B (100 mM HEPES-NaOH pH 7.5, 200 mM NaCl, 10 mM CaCl2, 0.01% triton X-100, 0.1% glycerol); 1 mM Suc-AAPF-pNA or MeO-SucAAPV-pNA as substrate; various concentrations of Pnserpin; absorption at 410 nm; kass = kunc × (1 + [S]/KM).
Experiment [2] has as its target bovine α-chymotrypsin (bovine).

Regarding “Pnserpin (from UniProt B1YBN4 1-393) (natural protein)”, in experiment [1], the association rate constant (kon) is 24600 M⁻¹ s⁻¹. Further, in experiment [2], the stoichiometry of inhibition (SI), incubation at 20 °C; residual protease activity stood at 9.49; the stoichiometry of inhibition (SI), incubation at 30 °C; residual protease activity is 5.8; the stoichiometry of inhibition (SI), incubation at 40 °C; residual protease activity came out at 4.76; the stoichiometry of inhibition (SI), incubation at 50 °C; residual protease activity is 2.21.

The term kon denotes the rate constant with which the complex forms.
